Experimental data published in the supplement of paper PMC10126150.
± gives the standard deviation of the averaged measurements.

System: ATP
Test: switch fluorescence ratio, 500 uM ATP over buffer (Cy3 cluster intensity, sum of 5 cycles each) (fold (ratio)); higher = stronger signal-on switching upon ATP binding; sequences stand for … in TCGTCGGCAGCGTCAGATGTGTATAAGAGACAGTTTTTTTTTTTTTTTTTTTTTTTTT…TC
Settings: aptamer strand: ATP DNA aptamer (quencher-CACCTGGGGGAGTATTGCGGAGGAAGG + anchor), 100 nM annealed; ATP concentration: 500 uM
Procedure, shortened: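 Clusters with intensities outside 100-1000 RFU were excluded. The remaining Cy3-labelled switching-strand clusters on a modified Illumina MiSeq flow-cell had been annealed to 100 nM quencher-labelled ATP aptamer and imaged in selection buffer, then after 15 min with 500 uM ATP at 22 °C, for five cycles separated by NaOH stripping and re-annealing. The fluorescence ratio, averaged per switch-domain sequence, is each cluster's summed target-cycle Cy3 intensity over its summed buffer-cycle Cy3 intensity.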
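Further: ATP exposure 15 min at 22 °C before imaging.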

For ATAGGGCTGG, the switch fluorescence ratio was 0.968 ± 0.024.
In the case of CATTTTAGGG, the switch fluorescence ratio is reported as 0.988 ± 0.027.
Sequence TGGCTTAACG has a switch fluorescence ratio of 0.961 ± 0.0041.
With TACCATTTGT the switch fluorescence ratio was 1 ± 0.044.
With CGATAAACGG the switch fluorescence ratio was 1.03 ± 0.022.
TTGATTTATT gave a switch fluorescence ratio of 0.994 ± 0.017.
AATTTGATC showed a switch fluorescence ratio of 1.03 ± 0.021.
With AGTGTTTTGG the switch fluorescence ratio was 0.967 ± 0.024.
In the case of GTGGGTCGGG, the switch fluorescence ratio is reported as 1.006 ± 0.0049.
Work on ATGGCTGTTT yielded a switch fluorescence ratio of 0.972 ± 0.0012.
Sequence CAAAGCGCGG has a switch fluorescence ratio of 0.997 ± 0.055.
AAGGAAAGGT was tested, and the switch fluorescence ratio was 1.061 ± 0.0073.
For GGGTGAGATT, the switch fluorescence ratio was 1.02 ± 0.015.
Sequence CTTTGGGGGA has a switch fluorescence ratio of 0.983 ± 0.023.
With TTAAAGTAGG the switch fluorescence ratio was 0.992 ± 0.015.
GAGTGGTTTA was tested, and the switch fluorescence ratio was 0.9913 ± 0.0096.
GGGGTTAGTG showed a switch fluorescence ratio of 0.971 ± 0.034.
TTTTAGAGGG was tested, and the switch fluorescence ratio was 0.982 ± 0.034.
TACGATGGTT gave a switch fluorescence ratio of 0.989 ± 0.028.
For AAGCTGTAGC, the switch fluorescence ratio was 1.03 ± 0.048.
TTTTTGATCT gave a switch fluorescence ratio of 0.998 ± 0.016.
Work on TTCTTAAATT yielded a switch fluorescence ratio of 0.981 ± 0.019.
In the case of CAAAGAGGAT, the switch fluorescence ratio is reported as 0.991 ± 0.022.
GATGAAAGGG was tested, and the switch fluorescence ratio was 1.22 ± 0.46.
CGCGATTTAA showed a switch fluorescence ratio of 1.056 ± 0.0088.
CCGAAGGGTT was tested, and the switch fluorescence ratio was 1.02 ± 0.077.
In the case of GTCTTAGGTC, the switch fluorescence ratio is reported as 1 ± 0.035.
CGGCGGATTC showed a switch fluorescence ratio of 1.03 ± 0.019.
For ATTCGATATG, the switch fluorescence ratio was 0.997 ± 0.011.
In the case of TTTTGCATTT, the switch fluorescence ratio is reported as 1.04 ± 0.055.
TGAGCAAGGT gave a switch fluorescence ratio of 1.203 ± 0.0039.
For TTTAAGGAGA, the switch fluorescence ratio was 0.993 ± 0.037.
With GCTGGGGTAA the switch fluorescence ratio was 1.02 ± 0.021.
Work on GGGGGGTGAA yielded a switch fluorescence ratio of 1.02 ± 0.012.
TAGTGTGGGA was tested, and the switch fluorescence ratio was 1 ± 0.043.
CTTTAAGTTG showed a switch fluorescence ratio of 1.03 ± 0.029.
GGGGGCCAGC gave a switch fluorescence ratio of 1.01 ± 0.02.
In the case of TTAGGTAACT, the switch fluorescence ratio is reported as 1.01 ± 0.019.
GGGTGCGGTT showed a switch fluorescence ratio of 1.011 ± 0.01.
Sequence ATGTTAGGGA has a switch fluorescence ratio of 1.034 ± 0.0052.
With GCGCTACGTG the switch fluorescence ratio was 1.01 ± 0.026.
Sequence AGTAGTAAGA has a switch fluorescence ratio of 1.01 ± 0.022.
Work on TAAGCATTTC yielded a switch fluorescence ratio of 1.34 ± 0.11.
TTTCAATTGT was tested, and the switch fluorescence ratio was 1.02 ± 0.047.
With TGGTAGGAGG the switch fluorescence ratio was 1.002 ± 0.0056.
In the case of AAGTTGATGC, the switch fluorescence ratio is reported as 1.011 ± 0.0027.
GACGCATCTA was tested, and the switch fluorescence ratio was 3.35 ± 0.36.
TGGATAATTT was tested, and the switch fluorescence ratio was 0.9962 ± 0.0084.
For TAGGGTCATA, the switch fluorescence ratio was 1.04 ± 0.077.
Work on AGGGGGGGAA yielded a switch fluorescence ratio of 1.01 ± 0.032.
With AAGGAGGTTT the switch fluorescence ratio was 1.01 ± 0.031.
With AGGTTTGGGG the switch fluorescence ratio was 1.04 ± 0.033.
Sequence GGGGTTAAGA has a switch fluorescence ratio of 1.01 ± 0.08.
AAATGATCTA showed a switch fluorescence ratio of 1.01 ± 0.029.
With TTGGCACGTG the switch fluorescence ratio was 0.985 ± 0.061.
Sequence TTTAAACAA has a switch fluorescence ratio of 1 ± 0.032.
Work on CCTTTTCGCG yielded a switch fluorescence ratio of 1.106 ± 0.0051.
GAAATTTTTG gave a switch fluorescence ratio of 0.985 ± 0.029.
AGAGGTCTAC was tested, and the switch fluorescence ratio was 0.982 ± 0.031.
Sequence TGCTAACTTT has a switch fluorescence ratio of 0.999 ± 0.052.
ACAGGACCGT showed a switch fluorescence ratio of 1.11 ± 0.038.
For TGATGGTGGC, the switch fluorescence ratio was 0.997 ± 0.017.
Work on ATATTGTGTG yielded a switch fluorescence ratio of 1.01 ± 0.048.
In the case of GACCTAGCTA, the switch fluorescence ratio is reported as 1.14 ± 0.053.
GTGGGAAGTG gave a switch fluorescence ratio of 0.975 ± 0.025.
For CCTAGGGAGC, the switch fluorescence ratio was 1.07 ± 0.1.
GGCGCCTGGG gave a switch fluorescence ratio of 0.9875 ± 0.0033.
ATAAGTGTCA showed a switch fluorescence ratio of 0.9926 ± 0.0067.
GATGGATAAG showed a switch fluorescence ratio of 1.009 ± 0.0024.
ATATTTTCGC was tested, and the switch fluorescence ratio was 1.04 ± 0.03.
Sequence TTAGAATGGG has a switch fluorescence ratio of 1.12 ± 0.14.
With GAGTGTAAGT the switch fluorescence ratio was 0.979 ± 0.01.
Work on GCTAATGTGC yielded a switch fluorescence ratio of 1.02 ± 0.018.
Sequence CACTTTGTTT has a switch fluorescence ratio of 1.01 ± 0.066.
Work on GGTCTAATCT yielded a switch fluorescence ratio of 1.04 ± 0.015.
GGTCTACTTT showed a switch fluorescence ratio of 0.998 ± 0.021.
TGGGGCGGGG gave a switch fluorescence ratio of 0.983 ± 0.018.
AGCTTGGGCA showed a switch fluorescence ratio of 1.02 ± 0.0095.
Sequence GTTTTCATGG has a switch fluorescence ratio of 0.996 ± 0.013.
In the case of TTACCGGGGG, the switch fluorescence ratio is reported as 1.042 ± 0.0095.
CATTTTGGTT gave a switch fluorescence ratio of 0.995 ± 0.036.
CTGCTGAGCA was tested, and the switch fluorescence ratio was 1.03 ± 0.029.
TGTAGTACTG was tested, and the switch fluorescence ratio was 1.02 ± 0.043.
AGGCAGGAGG gave a switch fluorescence ratio of 1 ± 0.015.
For CATTAGATGC, the switch fluorescence ratio was 1.06 ± 0.056.
With ATCTTATGTT the switch fluorescence ratio was 0.987 ± 0.025.
TGAGGGATTC showed a switch fluorescence ratio of 1 ± 0.047.
Work on AATATGCAGG yielded a switch fluorescence ratio of 0.9657 ± 0.0034.
For AAAGTGCATC, the switch fluorescence ratio was 0.992 ± 0.0037.
TGGGGGGGGA gave a switch fluorescence ratio of 1.02 ± 0.036.
For ACGAATCCTT, the switch fluorescence ratio was 1.04 ± 0.013.
TAGAACCTCG showed a switch fluorescence ratio of 1.02 ± 0.057.
Sequence TTTTGGCATG has a switch fluorescence ratio of 1.03 ± 0.034.
With TGGGTCTAGA the switch fluorescence ratio was 0.975 ± 0.023.
With GGTTTGGGTA the switch fluorescence ratio was 1.01 ± 0.0044.
Work on AAAGGGCTGG yielded a switch fluorescence ratio of 0.984 ± 0.019.
Work on CGGTTTTTT yielded a switch fluorescence ratio of 1 ± 0.021.
CGGCTGGAGT showed a switch fluorescence ratio of 1.001 ± 0.0043.
TGGCGCCCTG gave a switch fluorescence ratio of 0.998 ± 0.069.
TTCTGGGAAA was tested, and the switch fluorescence ratio was 0.9997 ± 0.0057.
Work on TCGTGACTGT yielded a switch fluorescence ratio of 1.02 ± 0.065.
For AGCTTTGCTA, the switch fluorescence ratio was 0.9582 ± 0.0072.
With GAGCGCGGCG the switch fluorescence ratio was 0.977 ± 0.048.
For AGGCAGATAG, the switch fluorescence ratio was 1.04 ± 0.025.
TTTTTGTAAC gave a switch fluorescence ratio of 1.01 ± 0.022.
With GATGGGTGAC the switch fluorescence ratio was 0.992 ± 0.024.
Work on GAGCTGGATA yielded a switch fluorescence ratio of 0.967 ± 0.03.
ATGTTTATTG gave a switch fluorescence ratio of 0.998 ± 0.018.
Work on GGTTCAAAGT yielded a switch fluorescence ratio of 0.9703 ± 0.0047.
With TGGGGATCTA the switch fluorescence ratio was 1.002 ± 0.006.
CCGGCAGGAT was tested, and the switch fluorescence ratio was 0.988 ± 0.011.
Sequence ATGGGGGCGA has a switch fluorescence ratio of 0.978 ± 0.014.
With GGGTTGGCTC the switch fluorescence ratio was 0.994 ± 0.041.
Sequence AATTTAGGGG has a switch fluorescence ratio of 0.989 ± 0.03.
Work on CACTGTCTGT yielded a switch fluorescence ratio of 0.98 ± 0.028.
CCTAGTGTTC gave a switch fluorescence ratio of 0.9801 ± 0.0083.
Sequence GCAAAGGGGG has a switch fluorescence ratio of 0.9758 ± 0.006.
With GCCTTGTGCG the switch fluorescence ratio was 1.01 ± 0.018.
AACTCAGGCG showed a switch fluorescence ratio of 1.039 ± 0.0066.
Work on GGGGTAGGGG yielded a switch fluorescence ratio of 1.01 ± 0.026.
With GGGAATGGAG the switch fluorescence ratio was 0.976 ± 0.029.
GGGGTGTTTT gave a switch fluorescence ratio of 0.999 ± 0.048.
GATGGGAGTT gave a switch fluorescence ratio of 1.01 ± 0.014.
TTCCAGTAGT gave a switch fluorescence ratio of 1.01 ± 0.03.
With GGAGAAGTGG the switch fluorescence ratio was 0.976 ± 0.034.
TTAAGGTAGC was tested, and the switch fluorescence ratio was 1.03 ± 0.013.
For TTGTGGATG, the switch fluorescence ratio was 0.962 ± 0.017.
Sequence ACTAATGCTT has a switch fluorescence ratio of 1.01 ± 0.034.
CTTTGTCGAG was tested, and the switch fluorescence ratio was 1 ± 0.019.
For CAGATCTGAA, the switch fluorescence ratio was 0.952 ± 0.07.
For TCTTTTGCCT, the switch fluorescence ratio was 1.01 ± 0.034.
In the case of AATAAGCGCA, the switch fluorescence ratio is reported as 0.993 ± 0.037.
Sequence CATTAAAATT has a switch fluorescence ratio of 0.994 ± 0.028.
Work on CGGGGGGGAT yielded a switch fluorescence ratio of 1.02 ± 0.026.
In the case of ATTGGTCCTG, the switch fluorescence ratio is reported as 0.999 ± 0.02.
Work on GCTTTGGGGC yielded a switch fluorescence ratio of 1.01 ± 0.02.
TTGTACTATC showed a switch fluorescence ratio of 1.01 ± 0.063.
For GGGAAGCTTA, the switch fluorescence ratio was 1.008 ± 0.0042.
Work on TTGTTACATG yielded a switch fluorescence ratio of 1.012 ± 0.0051.
GCCGGGGACA gave a switch fluorescence ratio of 1.03 ± 0.053.
In the case of CTTAGGTTGT, the switch fluorescence ratio is reported as 1.004 ± 0.0077.
CCGGTTTTCG showed a switch fluorescence ratio of 1.09 ± 0.036.
In the case of GCTTTTGAAG, the switch fluorescence ratio is reported as 0.993 ± 0.019.
GGATGGCGGA showed a switch fluorescence ratio of 0.997 ± 0.024.
In the case of ACCTTGGGAA, the switch fluorescence ratio is reported as 1.01 ± 0.017.
In the case of AAACAAACCC, the switch fluorescence ratio is reported as 1.01 ± 0.042.
For CCTTATAAA, the switch fluorescence ratio was 1 ± 0.018.
With TTTTCTAGTA the switch fluorescence ratio was 0.983 ± 0.038.
TTATGCACGT was tested, and the switch fluorescence ratio was 1.04 ± 0.049.
AGGATGGTAC was tested, and the switch fluorescence ratio was 1.03 ± 0.015.
Work on ACTCAGTTCT yielded a switch fluorescence ratio of 1.03 ± 0.016.
For TGGTAGGTGA, the switch fluorescence ratio was 0.997 ± 0.025.
Sequence AAGAGAAGTT has a switch fluorescence ratio of 0.9938 ± 0.0088.
GATTGAGGAG gave a switch fluorescence ratio of 0.981 ± 0.03.
TAAGGGTTTG showed a switch fluorescence ratio of 0.977 ± 0.036.
With TCAAATTTTT the switch fluorescence ratio was 0.998 ± 0.045.
In the case of CGGGAGAATA, the switch fluorescence ratio is reported as 0.989 ± 0.013.
